Measurements from article PMC7527728, “CPSF6-Dependent Targeting of Speckle-Associated Domains Distinguishes Primate from Nonprimate Lentiviral Integration” (mBio, 2020).

Molecular target: CPSF6_(276–290/F284A) peptide (human)
Assay: fluorescence polarisation; 150 nM FITC-Ahx-labelled peptide mixed with increasing capsid NTD protein (2 μM to 2 mM) in 50 mM Tris-HCl pH 8.0, 50 mM NaCl, 384-well plates; one-site specific binding model; the EIAV constants are called apparent

Row | Substance | Kd
1 | HIV-1 capsid N-terminal domain (NTD) protein (domain or fragment) | > 6 mM
2 | MLV capsid N-terminal domain (NTD) protein (domain or fragment) | > 8 mM
